Source: patent US20230212587A1, “Mutant Hydroxyphenylpyruvate Dioxygenase Polypeptide, Encoding Gene Thereof and Use Therefor” (Beijing Dabeinong Biotechnology Co., Ltd., priority 2019, published 2023)

Tested on: Arabidopsis thaliana T1 plants
Assay: Topramezone tolerance of transgenic Arabidopsis thaliana T1 plants (pesticide damage grade by bleached leaf area, score, resistance evaluation)
Format: in vivo
Details: for Classification and statistics of pesticide damage grade Grade 0 / Classification and statistics of pesticide damage grade Grade 1 / Classification and statistics of pesticide damage grade Grade 2 / Classification and statistics of pesticide damage grade Grade 3: number of plants (of 16) in this grade; for Classification and statistics of pesticide damage grade: Grade 0 / Classification and statistics of pesticide damage grade: Grade 1 / Classification and statistics of pesticide damage grade: Grade 2 / Classification and statistics of pesticide damage grade: Grade 3: number of plants
Outline: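 Eighteen days after sowing, wild-type and HPPD-transgenic T1 Arabidopsis receive a topramezone spray at 1×, 2× or 4× field rate (25–100 g ai/ha) or water. Seven days later each plant is graded by its proportion of bleached leaf area.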

[1] = HPPDs from different species, topramezone 25 g ai/ha (1x), 7 DAT
[2] = HPPDs from different species, topramezone 100 g ai/ha (4x), 7 DAT
[3] = HPPDs from different species, score for pesticide damage 0-100, topramezone 25 g ai/ha (1x), 7 DAT
[4] = HPPDs from different species, score for pesticide damage 0-100, topramezone 100 g ai/ha (4x), 7 DAT
[5] = topramezone 25 g ai/ha (1x), HPPDs from ecotypes of Triticum aestivum
[6] = topramezone 100 g ai/ha (4x), HPPDs from ecotypes of Triticum aestivum

| Molecule | Classification and statistics of pesticide damage grade Grade 0 [1] | Classification and statistics of pesticide damage grade Grade 1 [1] | Classification and statistics of pesticide damage grade Grade 2 [1] | Classification and statistics of pesticide damage grade Grade 3 [1] | Classification and statistics of pesticide damage grade Grade 0 [2] | Classification and statistics of pesticide damage grade Grade 1 [2] | Classification and statistics of pesticide damage grade Grade 2 [2] | Classification and statistics of pesticide damage grade Grade 3 [2] | Scores [3] | Scores [4] | Resistance evaluation [1] | Resistance evaluation [2] | Resistance evaluation [5] | Scores [5] | Classification and statistics of pesticide damage grade: Grade 0 [5] | Classification and statistics of pesticide damage grade: Grade 1 [5] | Classification and statistics of pesticide damage grade: Grade 2 [5] | Classification and statistics of pesticide damage grade: Grade 3 [5] | Resistance evaluation [6] | Scores [6] | further results |
| --- | --- | --- | --- | --- | --- | --- | --- | --- | --- | --- | --- | --- | --- | --- | --- | --- | --- | --- | --- | --- | --- |
| BvHPPD-02: native Beta vulgaris HPPD, SEQ ID NO: 105 (protein, listed as Beta vulgaris, BvHPPD Amino Acid Sequence) MGTLSPQPQTSPSQFKLVGYSNFIRVNPLSDLFPVKRFHHVEFWCGDATNVSRRFSWGLGMPIVAKSDLSTGNSVHASYLLRSGELHFLFTSPYSPSLSSPSSATIPTFSFSLFTSFLTSHGLAVRAVAVEVQDAEAAFHISVSNGASPVSPPIRLHDGVVLSEVHLYGDVVLRYVSTSSVVDGIFLPGFEEMLGESSFQELDFGLRRLDHAVGNVPELAPAIEYVKKFTGFHEFAEFTTEDVGTSESGLNSAVVANNDETVLFPMNEPVYGTKRKSQIQTYLEHNEGAGVQHLALMSEDIFWTLREMRKRSGLGGFEFMPSPPPTYYRNLRNRAADVLSEEQMKECEELGILVDKDDQGTLLQIFTKPIGDRPTMFIEIIQRIGCMMKDEEGKVYQKGGCGGFGKGNFSELFKSIEEYEKTLERKPIADTNAT | 0 | 0 | 0 | 16 | 0 | 0 | 0 | 16 | 100 | 100 | non-resistant (non-resistant plants (scores 68-100)) | non-resistant (non-resistant plants (scores 68-100)) | – | – | – | – | – | – | – | – | – |
| BvHPPDm-F372A-02: Beta vulgaris HPPD mutant F372A, SEQ ID NO: 108 (protein, BvHPPDm-F372A Amino Acid Sequence) MGTLSPQPQTSPSQFKLVGYSNFIRVNPLSDLFPVKRFHHVEFWCGDATNVSRRFSWGLGMPIVAKSDLSTGNSVHASYLLRSGELHFLFTSPYSPSLSSPSSATIPTFSFSLFTSFLTSHGLAVRAVAVEVQDAEAAFHISVSNGASPVSPPIRLHDGVVLSEVHLYGDVVLRYVSTSSVVDGIFLPGFEEMLGESSFQELDFGLRRLDHAVGNVPELAPAIEYVKKFTGFHEFAEFTTEDVGTSESGLNSAVVANNDETVLFPMNEPVYGTKRKSQIQTYLEHNEGAGVQHLALMSEDIFWTLREMRKRSGLGGFEFMPSPPPTYYRNLRNRAADVLSEEQMKECEELGILVDKDDQGTLLQIATKPIGDRPTMFIEIIQRIGCMMKDEEGKVYQKGGCGGFGKGNFSELFKSIEEYEKTLERKPIADTNAT | 0 | 6 | 10 | 0 | 0 | 0 | 4 | 12 | 54 | 92 | poorly resistant (poorly resistant plants (scores 34-67)) | non-resistant (non-resistant plants (scores 68-100)) | – | – | – | – | – | – | – | – | – |
| NtHPPD-02: native Nicotiana tabacum HPPD, SEQ ID NO: 111 (protein, listed as Nicotiana tabacum, NtHPPD Amino Acid Sequence) MGKLETVTTTSAAAADDSSELTTNFKLVGFKNFIRTNPRSDFFSVKSFHHIEFWCGDATNTARRFSWSLGMPIAAKSDLSTGNSVHASYLLRPVSGSLQFLFTAPYSPSISTPSSAAIPSFSTSTHRSFTTTHGLGVRAVALEVENAYTAFSASVSRGAKPMFEPVTIDEQVAMAEVHLYGDVVLRFVSYLKDADNLVFLPGFEAMDETASYKELDYGIRRLDHAVGNVPELGPVVDYIKRFTGFHEFAEFTAEDVGTAESGLNSMVLANNDETVLLPLNEPVYGTKRKSQIQTYLEHNEGAGVQHLALVTEDIFKTLTEMRKRSGVGGFEFMPSPPPTYYKNLKNRAGDVLSDEQILACEELGILVDRDDQGTLLQIFTKPVGDRPTIFIEIIQRIGCMLKDGKGQVYQKGGCGGFGKGNFSELFRSIEEYEKTLEAKQANQVAAA | 0 | 0 | 0 | 16 | 0 | 0 | 0 | 16 | 100 | 100 | non-resistant (non-resistant plants (scores 68-100)) | non-resistant (non-resistant plants (scores 68-100)) | – | – | – | – | – | – | – | – | – |
| TaHPPD2-02: native HPPD of Triticum aestivum ecotype 2, UniProt Q45FE8, SEQ ID NO: 183 (protein, listed as Triticum aestivum, TaHPPD2 Amino Acid Sequence) MPPTPTTPAATGAGAAAAVTPEHARPRRMVRFNPRSDRFHTLSFHHVEFWCADAASAAGRFAFALGAPLAARSDLSTGNSVHASQLLRSGNLAFLFTAPYANGCDAATASLPSFSADAARRFSADHGLAVRSIALRVADAAEAFRASVDGGARPAFSPVDLGRGFGFAEVELYGDVVLRFVSHPDDTDVPFLPGFEGVSNPDAVDYGLTRFDHVVGNVPELAPAAAYVAGFAGFHEFAEFTTEDVGTAESGLNSMVLANNSEGVLLPLNEPVHGTKRRSQIQTFLEHHGGSGVQHIAVASSDVLRTLREMRARSAMGGFDFLPPRCRKYYEGVRRIAGDVLSEAQIKECQELGVLVDRDDQGVLLQIFTKPVGDRPTLFLEMIQRIGCMEKDERGEEYQKGGCGGFGKGNFSELFKSIEDYEKSLEAKQSAAVQGS | – | – | – | – | – | – | – | – | – | – | – | – | non-resistant (non-resistant plants (scores 68-100)) | 100 | 0 | 0 | 0 | 16 | non-resistant (non-resistant plants (scores 68-100)) | 100 | Classification and statistics of pesticide damage grade: Grade 0 [6]: 0; Classification and statistics of pesticide damage grade: Grade 1 [6]: 0; Classification and statistics of pesticide damage grade: Grade 2 [6]: 0; Classification and statistics of pesticide damage grade: Grade 3 [6]: 16 |
| TaHPPD2m-F372A-02: Triticum aestivum ecotype 2 HPPD mutant F372A, SEQ ID NO: 186 (protein, TaHPPD2m-F372A Amino Acid Sequence) MPPTPTTPAATGAGAAAAVTPEHARPRRMVRFNPRSDRFHTLSFHHVEFWCADAASAAGRFAFALGAPLAARSDLSTGNSVHASQLLRSGNLAFLFTAPYANGCDAATASLPSFSADAARRFSADHGLAVRSIALRVADAAEAFRASVDGGARPAFSPVDLGRGFGFAEVELYGDVVLRFVSHPDDTDVPFLPGFEGVSNPDAVDYGLTRFDHVVGNVPELAPAAAYVAGFAGFHEFAEFTTEDVGTAESGLNSMVLANNSEGVLLPLNEPVHGTKRRSQIQTFLEHHGGSGVQHIAVASSDVLRTLREMRARSAMGGFDFLPPRCRKYYEGVRRIAGDVLSEAQIKECQELGVLVDRDDQGVLLQIATKPVGDRPTLFLEMIQRIGCMEKDERGEEYQKGGCGGFGKGNFSELFKSIEDYEKSLEAKQSAAVQGS | – | – | – | – | – | – | – | – | – | – | – | – | highly resistant (highly resistant plants (scores 0-15)) | 0 | 16 | 0 | 0 | 0 | moderately resistant (moderately resistant plants (scores 16-33)) | 17 | Classification and statistics of pesticide damage grade: Grade 0 [6]: 8; Classification and statistics of pesticide damage grade: Grade 1 [6]: 8; Classification and statistics of pesticide damage grade: Grade 2 [6]: 0; Classification and statistics of pesticide damage grade: Grade 3 [6]: 0 |
| TaHPPD1m-F372A-02: Triticum aestivum ecotype 1 HPPD mutant F372A, SEQ ID NO: 180 (protein, TaHPPD1m-F372A Amino Acid Sequence) MMNAHANLALAALAFPAHMPNSKSSHIRSRRTRRPLLPLTMAAHPPIRTNIGMSTHGSASGGGEQAGISSTDRFRMIDFHHVEFWCADAASAAARFSFGLGVPLAAESGLSTGNTAHASHLLHSRSGSLALLFSAPYAQGDAVTASVPSFDADAARRFTADHGLAVRAMAVRVPDAGEAFRTSVDAGARPSFAPAELGHGFELAEVQLYGDVVLRFVSHPDDTAIPFLPGFGSVPSSGATPDYGLTRFDHIVGDVPHLAPVAAYIAGFTGFHEFSRFTADQVGTAESSLNVVVLANNSENVLLTVVEPVHGTKRRSQVQTYLDHHGGPGVQHLAMASNDVLGTLRKIRGRSTMGGFELLPPPPASYYDDVRRRAGDVLSEAQIKGCQELGVRVDKDDHGGVVLQIATKAAGDRPTLLLEFIQRIGCMDKDENGQEYQRGGCGGFGQGNVTELFKSIEDYEKSLDASARLAA | – | – | – | – | – | – | – | – | – | – | – | – | highly resistant (highly resistant plants (scores 0-15)) | 0 | 16 | 0 | 0 | 0 | highly resistant (highly resistant plants (scores 0-15)) | 2 | Classification and statistics of pesticide damage grade: Grade 0 [6]: 15; Classification and statistics of pesticide damage grade: Grade 1 [6]: 1; Classification and statistics of pesticide damage grade: Grade 2 [6]: 0; Classification and statistics of pesticide damage grade: Grade 3 [6]: 0 |
